Drawing on article PMC10945505 (2024), this text covers Kd for three molecules.

Among the targets are L-39F7; L-αGFP; Human βKlotho (human, UniProt Q86Z14 1-996); FZD7 CRD (Homo sapiens).
Holding throughout (experiment): BLI
(BLI is a label-free optical method that tracks binding on a fibre tip over time.)

B1: LRP6E3E4 (protein)
chain: EAFLLFSRRADIRRISLETNNNNVAIPLTGVKEASALDFDVTDNRIYWTDISLKTISRAFMNGSALEHVVEFGLDYPEGMAVDWLGKNLYWADTGTNRIEVSKLDGQHRQVLVWKDLDSPRALALDPAEGFMYWTEWGGKPKIDRAAMDGSERTTLVPNVGRANGLTIDYAKRRLYWTDLDTNLIESSNMLGLNREVIADDLPHPFGLTQYQDYIYWTDWSRRSIERANKTSGQNRTIIQGHLDYVMDILVFHSSRQSGWNECASSNGHCSHLCLAVPVGGFVCGCPAHYSLNADNRTCSAPTTFLLFSQKSAINRMVIDEQQSPDIILPIHSLRNVRAIDYDPLDKQLYWIDSRQNMIRKAQEDGSQGFTVVVSSVPSQNLEIQPYDLSIDIYSRYIYWTCEATNVINVTRLDGRSVGVVLKGEQDRPRAVVVNPEKGYMYFTNLQERSPKIERAALDGTEREVLFFSGLSKPIALALDSRLGKLFWADSDLRRIESSDLSGANRIVLEDSNILQPVGLTVFENWLYWIDKQQQMIEKIDMTGREGRTKVQARIAQLSDIHAVKELNLQEYRQHPCAQDNGGCSHICLVKGDGTTRCSCPMHLVLLQDELSCGEP
B1: the figures for the Kd in the assay with L-39F7 and with L-αGFP were 6.4 nM and 9.7 nM, respectively.

B2: F-FGF21ΔN (other)
chain: QRYLYTDDAQQTEAHLEIREDGTVGGAADQSPESLLQLKALKPGVIQILGVKTSRFLCQRPDGALYGSLHFDPEACSFRERLLEDGYNVYQSEAHGLPLHLPGNKSPHRDPAPRGPARFLPLPGLPPALPEPPGILAPQPPDVGSSDPLSMVGGSQGRSPSYES
Regarding B2, the equilibrium dissociation constant (Kd) in the assay with Human βKlotho was 11.8 nM; with FZD7 CRD, 82.5 nM.

B3: F-FGF21FL (other)
chain: HPIPDSSPLLQFGGQVRQRYLYTDDAQQTEAHLEIREDGTVGGAADQSPESLLQLKALKPGVIQILGVKTSRFLCQRPDGALYGSLHFDPEACSFRERLLEDGYNVYQSEAHGLPLHLPGNKSPHRDPAPRGPARFLPLPGLPPALPEPPGILAPQPPDVGSSDPLSMVGGSQGRSPSYES
With B3, the equilibrium dissociation constant (Kd) was determined as 10.1 nM with Human βKlotho and 92.3 nM in the assay with FZD7 CRD.

Broadly, the Kd is a measure of binding affinity in units of concentration. Higher therefore signals a looser complex.
